In the data set the target is T1, DesT (selenomethionine) (Pseudomonas aeruginosa, UniProt Q9HUS3 1-209).
T1 sequence: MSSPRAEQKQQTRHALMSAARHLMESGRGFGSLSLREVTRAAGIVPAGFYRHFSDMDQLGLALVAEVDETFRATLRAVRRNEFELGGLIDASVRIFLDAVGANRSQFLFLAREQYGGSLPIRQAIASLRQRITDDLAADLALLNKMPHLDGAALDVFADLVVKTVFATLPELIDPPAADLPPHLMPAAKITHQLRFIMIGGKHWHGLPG
Kind of data set: X-ray crystallography.

Results on 1 molecule are retold here after article PMC2935088.

B1: desCB promoter 30mer crystallization duplex (dsDNA)
DNA 1: TTACATCAGTGAACGCTTGTTGACTCGATTG
DNA 2: CAATCGAGTCAACAAGCGTTCACTGATGTA
Regarding B1, the binding result is recorded as “binds”.
